# Laboratory results as given in the RNAGym collection of RNA variant scans (doi:10.1021/acssynbio.7b00057).
# B1: Pistol ribozyme (parent)
# chain: GGGUCGUUGUUCCAUAAUCGCGUGGAUAUGGCACGCAAGUUUCUACCGGGCACCGUAAAUGUCCGACUGGAGCCGUUCGGGCGGCUAUAAACAGACCUCAGGCCCGAAGCGUGGCGGCACCUGCCGCCGGUGGUAAAAAAGAUCGGAAGAGCACACGUCU
# Variants of: B1
# Assay: aptazyme ON/OFF ratio, guanine; higher = stronger switching; co-transcriptional cleavage with and without guanine
row,Variant,aptazyme ON/OFF ratio
1,U7A U8G U10G U11G C12G C13U,1.18
2,U7A U8G U10G U11G C12G C13G,1.03
3,U7A U8G U10G U11G C12G C13A,1.45
4,U7A U8G U11C C12G C13G,1.17
5,U7A U8G U11C C12G C13A,1.02
6,U7A U8G U11C C12G C13U,1.2
7,U7A U10G C13A,1.31
8,U7A U10G C13G,1.23
9,U7A U10G C13U,1.27
10,U7A U10G C12U,1.29
11,U7A U10G C12G,1.36
12,U7A U10G C12A,1.16
13,U7A U10C U11A C12G C13G,1.26
14,U7A U10C U11A C12G C13U,1.29
15,U7A U10C U11A C12G C13A,1.22
16,U7A U8G U11A C13A,1.31
17,U7A U8G U11A C13U,1.11
18,U7A U8G U11A C13G,1.4
19,U7A U10C U11G C12A C13A,1.28
20,U7A U10C U11G C12A C13G,1.23
21,U7A U10C U11G C12A C13U,1.26
22,U7A U11A C12U C13U,1.31
23,U7A U11A C12U C13A,1.26
24,U7A U11A C12U C13G,1.36

row,Variant,aptazyme ON/OFF ratio
1,U7A U10G U11A C13G,1.09
2,U7A U10G U11A C13A,1.11
3,U7A U10G U11A C13U,1.06
4,U7A U10A U11G C12G C13U,1.16
5,U7A U10A U11G C12G C13A,1.06
6,U7A U10A U11G C12G C13G,1.11
7,U7A U10A C12A C13U,1.39
8,U7A U10A C12A C13G,1.1
9,U7A U10A C12A C13A,1.27
10,U7A U8G U10G U11G C12A C13U,1.41
11,U7A U8G U10G U11G C12A C13G,1.47
12,U7A U8G U10G U11G C12A C13A,1.22
13,U7A U8G U10G U11A C12U C13U,1.15
14,U7A U11G C12U C13G,1.06
15,U7A U11G C12U C13A,1.15
16,U7A U11G C12U C13U,1.13
17,U7A U8G U11C C13G,1.35
18,U7A U8G U11C C13U,1.11
19,U7A U8G U11C C13A,1.51
20,U7A U11C C12A C13A,1.35
21,U7A U11C C12A C13G,1.22
22,U7A U11C C12A C13U,1.19
23,U7A U10A C12U C13U,1.27
24,U7A U10A C12U C13G,1.14

row,Variant,aptazyme ON/OFF ratio
1,U7A U10A C12U C13A,1.18
2,U7A U11C C12U,1.43
3,U7A U11C C12G,1.08
4,U7A U11C C12A,1.39
5,U7A U11C C13A,1.19
6,U7A U11C C13U,1.21
7,U7A U11C C13G,1.07
8,U7A U11G C12A C13U,1.25
9,U7A U11G C12A C13G,1.25
10,U7A U11G C12A C13A,1.15
11,U7C,1.31
12,U7A U8G U10G U11C C13U,1.3
13,U7A U8G U10G U11C C13G,1.29
14,U7A U8G U10G U11C C13A,1.11
15,U7A U10C U11A,1.2
16,U7A U10C U11G,1.25
17,U7A U10C U11C,1.03
18,U7A U10C U11G C12U,1.24
19,U7A U10C U11G C12A,1.08
20,U7A U10C U11G C12G,1.26
21,U7A U10A U11A C12G C13A,1.07
22,U7A U10A U11A C12G C13U,1.25
23,U7A U10A U11A C12G C13G,1.46
24,U7A U8G U10G U11C C12U,1.53

row,Variant,aptazyme ON/OFF ratio
1,U7A U8G U10G U11C C12G,1.14
2,U7A U8G U10G U11C C12A,1.21
3,U7A U8G U11C C12U,1.31
4,U7A U8G U11C C12A,1.24
5,U7A U8G U11C C12G,1.05
6,U7A U10G U11G C12G,1.45
7,U7A U10G U11G C12A,1.29
8,U7A U10G U11G C12U,1.28
9,U7A U8G U10G U11G C13U,1.32
10,U7A U8G U10G U11G C13G,1.29
11,U7A U8G U10G U11G C13A,1.39
12,U7A U10C U11C C13U,1.03
13,U7A U10C U11C C13A,1.03
14,U7A U10C U11C C13G,1.07
15,U7A U10A U11A C12G,1.18
16,U7A U10A U11A C12U,1.2
17,U7A U10A U11A C12A,1.11
18,U7A U10A U11C C12A C13A,1.1
19,U7A U10A U11C C12A C13U,1.11
20,U7A U10A U11C C12A C13G,1.03
21,U7A U10G U11G C12U C13A,1.33
22,U7A U10G U11G C12U C13G,1.23
23,U7A U10G U11G C12U C13U,1.2
24,U7A U10C C13G,1.08

row,Variant,aptazyme ON/OFF ratio
1,U7A U10C C13A,1.06
2,U7A U10C C13U,1.13
3,U7A U8G U11G C12U C13A,1.63
4,U7A U8G U11G C12U C13G,1.29
5,U7A U8G U11G C12U C13U,1.22
6,U7A U8G U11C C12A C13U,1.19
7,U7A U8G U11C C12A C13A,1.17
8,U7A U8G U11C C12A C13G,1.12
9,U7A U10C U11C C12G C13A,1.04
10,U7A U10C U11C C12G C13G,1.09
11,U7A U10C U11C C12G C13U,1.06
12,U7A U10C U11C C12U,1.04
13,U7A U10C U11C C12G,1.14
14,U7A U10C U11C C12A,1.1
15,U7C C12U,1.73
16,U7C C12A,1.61
17,U7C C12G,1.85
18,U7A U10C U11G C12G C13A,1.24
19,U7A U10C U11G C12G C13U,1.18
20,U7A U10C U11G C12G C13G,1.31
21,U7A U11G C12G C13A,1.13
22,U7A U11G C12G C13G,1.42
23,U7A U11G C12G C13U,1.23
24,U7A U10G U11C C12G C13U,1.34

row,Variant,aptazyme ON/OFF ratio
1,U7A U10G U11C C12G C13G,1.11
2,U7A U10G U11C C12G C13A,1.13
3,U7A U8G U11A,1.49
4,U7A U8G U11C,1.32
5,U7A U8G U11G,1.95
6,U7A U10A U11G C13U,1.19
7,U7A U10A U11G C13A,1.31
8,U7A U10A U11G C13G,1.3
9,U7A U10A U11A C12A C13A,1.23
10,U7A U10A U11A C12A C13G,1.14
11,U7A U10A U11A C12A C13U,1.21
12,U7A U10A U11C C12U C13U,1.04
13,U7A U10A U11C C12U C13G,1.07
14,U7A U10A U11C C12U C13A,1.07
15,U7A U10G U11C C13A,1.07
16,U7A U10G U11C C13U,1.05
17,U7A U10G U11C C13G,1.08
18,U7A U10C U11A C12A C13U,1.11
19,U7A U10C U11A C12A C13G,1.23
20,U7A U10C U11A C12A C13A,1.21
21,U7A U8G U10G U11G C12G,1.31
22,U7A U8G U10G U11G C12A,1.24
23,U7A U8G U10G U11G C12U,1.42
24,U7A U10A U11G C12A C13A,1.17

row,Variant,aptazyme ON/OFF ratio
1,U7A U10A U11G C12A C13U,1.17
2,U7A U10A U11G C12A C13G,1.39
3,U7A U10A U11G C12G,1.45
4,U7A U10A U11G C12A,1.13
5,U7A U10A U11G C12U,1.15
6,U7A U10C U11G C12U C13G,1.31
7,U7A U10C U11G C12U C13A,1.27
8,U7A U10C U11G C12U C13U,1.2
9,U7A U10G C12A C13A,1.16
10,U7A U10G C12A C13U,1.2
11,U7A U10G C12A C13G,1.09
12,U7A U10C U11C C12U C13G,1.08
13,U7A U10C U11C C12U C13A,1.03
14,U7A U10C U11C C12U C13U,1.07
15,U7A U10G C12U C13G,1.12
16,U7A U10G C12U C13U,1.36
17,U7A U10G C12U C13A,1.41
18,U7A U10G U11A C12A,1.36
19,U7A U10G U11A C12G,1.24
20,U7A U10G U11A C12U,1.13
21,U7A U10G U11C C12A,1.76
22,U7A U10G U11C C12U,1.09
23,U7A U10G U11C C12G,1.64
